# Experimental data: patent publication US20200354430A1 (OPKO BIOLOGICS, published 2020)
# T1: MOD-5014 (activated CTP-modified human Factor VII, FVIIa-CTP3) (human, UniProt P08709 61-212, O-glycans on the CTP serines, sialylated; N-glycans (positions not given); gamma-carboxyglutamic acid (Gla) residues (highly gamma carboxylated; positions not given))
# T1 construct: also called FVIIa-CTP-CTP-CTP; FVIIa-3*CTP
# T1 sequence (light): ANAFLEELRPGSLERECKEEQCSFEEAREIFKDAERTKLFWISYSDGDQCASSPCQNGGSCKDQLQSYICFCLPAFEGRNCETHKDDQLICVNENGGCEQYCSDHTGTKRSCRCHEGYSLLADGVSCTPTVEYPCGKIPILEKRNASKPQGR
# T1 sequence (heavy): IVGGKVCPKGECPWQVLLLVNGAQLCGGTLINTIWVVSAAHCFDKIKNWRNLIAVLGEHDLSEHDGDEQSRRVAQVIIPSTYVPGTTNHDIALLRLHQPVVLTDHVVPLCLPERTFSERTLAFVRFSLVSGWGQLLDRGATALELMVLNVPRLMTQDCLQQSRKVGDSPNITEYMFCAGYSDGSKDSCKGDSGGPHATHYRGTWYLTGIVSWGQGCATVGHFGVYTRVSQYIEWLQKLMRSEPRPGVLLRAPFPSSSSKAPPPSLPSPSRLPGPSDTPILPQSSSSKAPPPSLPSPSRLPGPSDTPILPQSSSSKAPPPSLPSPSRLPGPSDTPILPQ
# T2: Tissue factor (TF), P13726
# T2 chain: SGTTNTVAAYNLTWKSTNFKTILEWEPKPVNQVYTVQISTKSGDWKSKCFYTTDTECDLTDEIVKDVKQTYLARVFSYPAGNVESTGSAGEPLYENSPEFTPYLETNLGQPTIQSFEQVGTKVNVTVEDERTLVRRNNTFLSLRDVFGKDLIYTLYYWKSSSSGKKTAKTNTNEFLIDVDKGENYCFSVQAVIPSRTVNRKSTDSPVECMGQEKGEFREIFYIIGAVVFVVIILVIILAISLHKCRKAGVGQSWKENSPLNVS
# What was measured:
# MOD-5014/TF complex [1] = target: MOD-5014/TF complex (UniProt P13726); experiment: cell-based or functional assay
# MOD-5000/TF complex [2] = target: MOD-5000/TF complex (UniProt P08709); experiment: cell-based or functional assay
# [3] = system: MOD-5014 (activated CTP-modified human Factor VII, FVIIa-CTP3)
# [4] = target: MOD-5000 (commercial recombinant hFVIIa, NovoSeven) (UniProt P08709)
# MOD-5000/TF complex [5] = target: MOD-5000/TF complex (UniProt P08709)
# MOD-5014/TF complex [6] = target: MOD-5014/TF complex (UniProt P13726)
# [7] = target: T1, MOD-5014 (activated CTP-modified human …); experiment: titration of FVIIa (0-2 nM) on fixed TF (10 pM), read out as rate of FX activation (Pefachrome FXa)
# Text: Cleavage of synthetic substrate is converted to FXa concentration by a standard curve.
# [8] = target: T2, Tissue factor (TF), P13726
# Sequence of Factor X (FX) (chain): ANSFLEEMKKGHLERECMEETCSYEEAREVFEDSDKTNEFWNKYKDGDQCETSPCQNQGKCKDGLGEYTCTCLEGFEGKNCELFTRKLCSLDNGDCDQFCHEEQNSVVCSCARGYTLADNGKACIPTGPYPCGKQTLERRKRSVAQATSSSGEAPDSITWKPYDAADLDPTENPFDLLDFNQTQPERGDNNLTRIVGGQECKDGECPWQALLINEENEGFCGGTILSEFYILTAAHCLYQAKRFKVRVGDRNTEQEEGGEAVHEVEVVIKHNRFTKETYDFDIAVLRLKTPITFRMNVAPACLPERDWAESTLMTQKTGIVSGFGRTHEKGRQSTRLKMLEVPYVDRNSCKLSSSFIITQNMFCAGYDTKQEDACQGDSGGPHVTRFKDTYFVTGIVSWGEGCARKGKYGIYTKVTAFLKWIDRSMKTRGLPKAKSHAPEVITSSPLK
molecule,measurement,setting,value
tissue factor pathway inhibitor (TFPI) (from UniProt P10646 29-304),sensitivity to TFPI inhibition of FXa generation relative to MOD-5000,MOD-5014/TF complex [1],124%
anti-thrombin (AT) (from UniProt P01008 33-464),"k, rate constant of loss of FVIIa/TF activity with AT and heparin",MOD-5000/TF complex [2],0.354 min⁻¹
same,"k, rate constant of loss of FVIIa/TF activity with AT and heparin",MOD-5014/TF complex [1],0.217 min⁻¹
same,rate of inhibition by AT relative to MOD-5000,MOD-5014/TF complex [1],62%
Factor X (FX),Km of FX activation by lipid-bound FVIIa without TF,[3],0.848 µM
same,Vmax of FX activation by lipid-bound FVIIa without TF,[3],0.115 nM FXa/min
same,rate of FX activation on a lipid surface in the absence of TF relative to MOD-5000,[3],The rate of FX activation on a lipid surface in the absence of TF is lower for MOD-5014 (45%) relative to MOD-5000
same,Km of FX activation by lipid-bound FVIIa without TF,[4],0.878 µM
same,Vmax of FX activation by lipid-bound FVIIa without TF,[4],0.253 nM FXa/min
same,Km of FX activation by FVIIa/TF,MOD-5000/TF complex [5],0.14 µM
same,Vmax of FX activation by FVIIa/TF as a function of FX concentration,MOD-5000/TF complex [5],1.78 nM FXa/min
same,Km of FX activation by FVIIa/TF,MOD-5014/TF complex [6],0.12 µM
same,Vmax of FX activation by FVIIa/TF as a function of FX concentration,MOD-5014/TF complex [6],1.64 nM FXa/min
same,turnover of FX relative to MOD-5000,MOD-5014/TF complex [6],"When bound to TF, MOD-5014 had a slightly reduced turnover of FX (92%) relative to MOD-5000"
"Tissue factor (TF) (receptor, UniProt P13726 33-295, looked up) SGTTNTVAAYNLTWKSTNFKTILEWEPKPVNQVYTVQISTKSGDWKSKCFYTTDTECDLTDEIVKDVKQTYLARVFSYPAGNVESTGSAGEPLYENSPEFTPYLETNLGQPTIQSFEQVGTKVNVTVEDERTLVRRNNTFLSLRDVFGKDLIYTLYYWKSSSSGKKTAKTNTNEFLIDVDKGENYCFSVQAVIPSRTVNRKSTDSPVECMGQEKGEFREIFYIIGAVVFVVIILVIILAISLHKCRKAGVGQSWKENSPLNVS",Kd,[7],3 pM
"MOD-5014 (activated CTP-modified human Factor VII, FVIIa-CTP3) (protein) chain 1: ANAFLEELRPGSLERECKEEQCSFEEAREIFKDAERTKLFWISYSDGDQCASSPCQNGGSCKDQLQSYICFCLPAFEGRNCETHKDDQLICVNENGGCEQYCSDHTGTKRSCRCHEGYSLLADGVSCTPTVEYPCGKIPILEKRNASKPQGR chain 2: IVGGKVCPKGECPWQVLLLVNGAQLCGGTLINTIWVVSAAHCFDKIKNWRNLIAVLGEHDLSEHDGDEQSRRVAQVIIPSTYVPGTTNHDIALLRLHQPVVLTDHVVPLCLPERTFSERTLAFVRFSLVSGWGQLLDRGATALELMVLNVPRLMTQDCLQQSRKVGDSPNITEYMFCAGYSDGSKDSCKGDSGGPHATHYRGTWYLTGIVSWGQGCATVGHFGVYTRVSQYIEWLQKLMRSEPRPGVLLRAPFPSSSSKAPPPSLPSPSRLPGPSDTPILPQSSSSKAPPPSLPSPSRLPGPSDTPILPQSSSSKAPPPSLPSPSRLPGPSDTPILPQ",Vmax of FX activation at saturation of TF with FVIIa,[8],1.3 nM FXa/min
same,"k2, rate of Pefachrome FVIIa substrate cleavage by the VIIa/TF complex (mol pNA/min/mol VIIa/TF)",[8],357
